The target of one experiment is Calmodulin (Homo sapiens (Human), UniProt P0DP23 4-149). The experiment can be described thus: Protease activation assay: TVMV activity on a fluorogenic substrate at different calmodulin concentrations (FIG. 3).
The next experiment deals with T1, TVMV-AI-ePDZ-Binder.
T1 chain: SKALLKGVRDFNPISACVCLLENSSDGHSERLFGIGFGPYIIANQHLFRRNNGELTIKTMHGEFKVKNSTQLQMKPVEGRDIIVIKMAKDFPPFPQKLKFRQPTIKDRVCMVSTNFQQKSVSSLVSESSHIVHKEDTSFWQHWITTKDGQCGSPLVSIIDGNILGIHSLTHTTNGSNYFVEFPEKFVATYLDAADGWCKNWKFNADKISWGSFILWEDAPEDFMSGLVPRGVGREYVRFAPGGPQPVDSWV
Put plainly: Protease activation assay: TVMV activity on a fluorogenic substrate (FIG. 5).

B1: TVMV-AI-CalmodulinBinder (enzyme)
chain: SKALLKGVRDFNPISACVCLLENSSDGHSERLFGIGFGPYIIANQHLFRRNNGELTIKTMHGEFKVKNSTQLQMKPVEGRDIIVIKMAKDFPPFPQKLKFRQPTIKDRVCMVSTNFQQKSVSSLVSESSHIVHKEDTSFWQHWITTKDGQCGSPLVSIIDGNILGIHSLTHTTNGSNYFVEFPEKFVATYLDAADGWCKNWKFNADKISWGSFILWEDAPEDFMSGLVPRGVGREYVRFAPRWKKNFIAVSAANRFKKISSSGAL
notes: also called TVMV based calmodulin sensor
Consider B1, for which, in the experiment with Calmodulin, the binding result is “binds”.

B2: ePDZ (designed binder)
chain: SGTSPELGFSISGGVGGRGNPFRPDDDGIFVTRVQPEGPASKLLQPGDKIIQANGYSFINIEHGQAVSLLKTFQNTVELIIVREVGNGAKQEIRVRVEKDGGSGGVSSVPTNLEVVAATPTSLLISWDASYYGVSYYRITYGETGGNSPVQEFTVPYSSSTATISGLKPGVDYTITVYAYSDYYGSHHYSPISINYRTSGC
Regarding B2, the binding result in the experiment with TVMV-AI-ePDZ-Binder is reported as “binds”.

The values are drawn from patent US20160223529A1 (UNIVERSITY OF QUEENSLAND, published 2016).
